Data published in patent publication US20190367616A1 (SYMPHOGEN A S, published 2019).

T1: mouse PD-1 ECD (Sino Biological cat. no. 50124-MO8H) (mouse, UniProt Q02242 25-169)
T1 construct: extracellular domain; Bought monomeric ECD
T1 sequence (looked up): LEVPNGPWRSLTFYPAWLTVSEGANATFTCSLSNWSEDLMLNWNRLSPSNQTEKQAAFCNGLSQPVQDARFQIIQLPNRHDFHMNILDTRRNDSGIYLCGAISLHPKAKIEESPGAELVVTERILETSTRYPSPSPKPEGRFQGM


Columns and labels:
Test in all cases: SPR, antibody on sensor, monomeric PD-1 ECD in solution
[1] = target: T2, cynomolgus PD-1 ECD (Acro Biosystems cat. no. PD1-05223) (cynomolgus, UniProt B0LAJ3 25-170)
T2 construct: Bought monomeric ECD; not shown: any purification tag of the vendor's product (Acro Biosystems PD1-05223, probably a His tag)
T2 sequence (B0LAJ3 entry or part of it limits assumed): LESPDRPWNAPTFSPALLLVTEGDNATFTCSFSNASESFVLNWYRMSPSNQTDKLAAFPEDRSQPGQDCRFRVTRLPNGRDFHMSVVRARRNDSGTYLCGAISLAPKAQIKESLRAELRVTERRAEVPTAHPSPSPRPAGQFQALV
Method: (§1) The kinetic binding analysis was performed by Surface Plasmon Resonance (SPR) using a Continuous Flow Microspotter (CFM, Wasatch Microfluidics, US) combined with an Ibis MX96 SPR instrument (IBIS Technologies, The Netherlands). Surface Plasmon Resonance imaging analysis was performed on G-a-hu-IgG Fc SensEye® SPR sensors (Ssens BV, The Netherlands). Anti-PD-1 antibodies expressed in IgG₁ LALA format (i.e., having the mutations L234A/L235A) were diluted to 2.5 nM in PBS-T (1×PBS with 0.05% Tween 20, pH 7.4). Antibodies were spotted onto a G-a-hu-IgG Fc SensEye® for 15 minutes using a Continuous Flow Microspotter (CFM, Wasatch Microfluidics, Salt Lake City, US). After spotting, the SensEye® was positioned in the IBIS MX96 biosensor, and antibodies were chemically fixed to the sensor surface using Fix It Kit (Ssens BV, The Netherlands). Kinetic analysis was performed by applying a kinetic titration series (Karlsson et. al., Anal. Biochem. 349(1):136-47 (2006)), where monomeric PD-1 antigen was injected in increasing concentrations from 2 nM to 100 nM without application of surface regeneration steps after each antigen injection. Binding was tested to human PD-1 ECD (Acro Biosystems cat. no. PD1-H52219), mouse PD-1 ECD (Sino Biological. cat. no. 50124-MO8H) and cynomolgus PD-1 ECD (Acro Biosystems cat. no. PD1-05223) in three separate experiments. Antigen association was performed for 15 minutes and antigen dissociation was performed for 60 minutes. The kinetic analysis was performed at 25° C. After completion, the recorded binding responses were fitted to a simple Langmuir 1:1 binding model with Scrubber 2 software for calculation of the on-rate (kₒₙ or kₐ), off-rate (koff or kd) and affinity (KD) constants.

[2] = target: T1, mouse PD-1 ECD (Sino Biological cat. …)
Method: as §1

[3] = target: T3, human PD-1 ECD (Acro Biosystems cat. no. PD1-H52219) (human, UniProt Q15116 25-170)
T3 construct: extracellular domain; Bought monomeric ECD; also called monomeric PD-1 antigen
T3 sequence (Q15116 25-170, one chain of several): as the sequence (B0LAJ3 entry or part of it limits assumed) above, with E2D, A10P, L19V, A35T, R75Q, A144T counted along it
Method: as §1

| Kd [1] [nM] | koff [1] [s⁻¹] | kon [1] [M⁻¹ s⁻¹] | binding result [2] | Kd [3] [nM] | koff [3] [s⁻¹] | kon [3] [M⁻¹ s⁻¹] | Kd [2] [nM] | koff [2] [s⁻¹] | kon [2] [M⁻¹ s⁻¹] | Binder |
| --- | --- | --- | --- | --- | --- | --- | --- | --- | --- | --- |
| 3.1 | 0.0008 | 260000 | no binding (tested: 100 nM) | 0.29 | 0.00017 | 580000 | – | – | – | antibody 18483 (antibody, V domains shown, Tested as human IgG1 L234A/L235A (LALA), kappa) VH: QVQLQQSGGGLVQPGGSLRLSCAASGFTFSDYWMNWVRQAPGKGLEWVANIKEDGNEKYYVDSVKGRFTISRDNAKNSLYLQMNSLRAEDTAVYYCARDTNWGSDYWGQGTLVTVSS VL: not shown |
| 2.1 | 8e-05 | 38000 | no binding (tested: 100 nM) | 1.8 | 6e-05 | 34000 | – | – | – | antibody 18049 (antibody, V domains shown, Tested as human IgG1 L234A/L235A (LALA), kappa) VH: QVQLVESGGGVVQPGRSLRLSCAASGFTFSNYGMHWVRQAPGKGLEWVAVIWYDGSDKYYADSVKGRFTISRDNSKNTLYLQMNSLRAEDTAVYYCAGGGNYYGDFWGQGTLVTVSS VL: EIVMTQSPSSLSASVGDRVTITCRASQGIRNDLGWYQQKPGKAPKRLIYVASNLQSGVPSRFSGSGSGTEFTLTISSLQPEDFATYYCLQYNSYPWTFGQGTKVEIKR |
| 3.7 | 0.00087 | 230000 | – | 1.6 | 0.00035 | 230000 | 11 | 5e-05 | 4700 | antibody 18400 (antibody, V domains shown, Tested as human IgG1 L234A/L235A (LALA), kappa) VH: QLQLQESGPGLVKPSGTLSLTCAVSGGSISSSNWWSWVRQPPKKGLEWVGEIFHDGTTSYNPSLKSRVTMSVDKSKNQFSLKLSSVTAADTAVYYCARGNWGSGALDIWGPGTMVTVSS VL: EIVMTQSPSPLSASVGDRVTITCRASQGIRNDLGWYQQKPGKAPKLLIYAASSLQSGVPSRFSGSGSGTDFTLTISSLQPEDFATYYCLQDYNYPRTFGQGTKVEIKR |
| 34 | 0.0013 | 39000 | no binding (tested: 100 nM) | 2.3 | 0.00023 | 100000 | – | – | – | antibody 18098 (antibody, V domains shown, Tested as human IgG1 L234A/L235A (LALA), kappa) VH: QVQLQESGGGLVRPGGSLRLSCAASGFTFSSFAMNWVRQAPGKGLVWVSTITGGGTTSYYADSVKGRFTISRDNSKSTLFLQMNSLRAEDTAVYYCAKWGSWSAGAFDIWGQGTTVTVSS VL: DIQLTQSPSSVSASVGDRVTITCRASQGISSWLAWYQQKPGKAPKLLIYAASSLQSGVPSRFSGSGSGTDFTLTISSLQPEDFATYYCQQANSFPWTFGQGTKVEIKR |
| 6.4 | 0.00062 | 97000 | no binding (tested: 100 nM) | 1.5 | 0.00011 | 77000 | – | – | – | antibody 18413 (antibody, V domains shown, Tested as human IgG1 L234A/L235A (LALA), kappa) VH: EVQLVESGGGLVQPGGSLRLSCAASGFTFSSFVMSWVRQAPGKGLEWLSTISGGGGSTYYADSVKGRFTISRDNSKNTLYLQMNSLRAEDTAVYYCAKDWDLYYFDYWGQGTLVTVSS VL: DIQLTQSPSSVPASVGDRVTITCRASQGISNWLAWYQQKPGKAPKLLIYAASSLQSGVPSRFSGSGSGTDFTLTISSLQPEDFATYYCQQANSFPLTFGGGTKVEIKR |
| 4.3 | 0.00062 | 140000 | no binding (tested: 100 nM) | 0.82 | 0.00011 | 130000 | – | – | – | antibody 18325 (antibody, V domains shown, Tested as human IgG1 L234A/L235A (LALA), kappa) VH: QVQLQQSGGGLVQPGGSLRLSCAASGFTFSSHVMNWVRQAPGKGLEWVATISGSGVDTYYADSVKGRFTISRGNSKNMLYLQMNSLRAEDTAVYYCAKWGSWSAGAFDIWGQGTMVTVSS VL: EIVLTQSPSSVSASVGDRVTITCRASQGISSWLAWYQQKPGKAPKLLIYAASSLQSGVPSRFSGSGSGTDFTLTISSLQPEDFATYYCQQANSFPWTFGQGTKVEIKR |
| 2.9 | 0.00097 | 340000 | no binding (tested: 100 nM) | 0.41 | 0.00011 | 260000 | – | – | – | antibody 18040 (antibody, V domains shown, Tested as human IgG1 L234A/L235A (LALA), kappa; The VH/VL entries carry X at variable positions) VH: QVQLVESGGGLVKPGGSLRLSCAASGFTFSDYYMNWIRQAPGKGLEWVSYISSTGSTIYYADSVKGRFTISRDNAKNSLYLQMDSLRAEDTAVYYCARATNWGSDYWGQGTLVTVSS VL: not shown |
| 5.3 | 0.00076 | 140000 | no binding (tested: 100 nM) | 0.6 | 0.0001 | 170000 | – | – | – | antibody 18113 (antibody, V domains shown, Tested as human IgG1 L234A/L235A (LALA), kappa) VH: QVQLVESGGGLVKPGGSLRLSCAASGFTFSDYYMSWIRQAPGKGLEWVSYISSSGSTIYYADSAKGRFTISRDNAKNSLYLQMNSLRAEDTAVYYCARDTNWAFDYWGQGTLVTVSS VL: DIQLTQSPDSLAVSLGERATINCKSSQSVFYSANNKNYLAWYQQKPGQPPKLLIYWTSTRESGVPDRFRGSGSGTDFTLTISSLQAEDVAVYYCQQFYSTPRTFGQGTKVEIKR |
